For 1 substance, percent of VLPs αvβ3/MFG-E8 positive results are on record in PMC6901335.

In the assay the target is Recombinant MFG-E8 Protein (unlabelled, bound to NL4.3-GFP VLPs) (not stated (human or mouse recombinant protein bought)) (UniProt P21956). Briefly: flow cytometry of viral-like particles; 1 × 10^4 NL4.3-GFP VLPs in 20 μl of 1% BSA/PBS or 1 × HBSS (1 mM Ca2+, 2 mM Mg2+, 1 mM Mn2+, 0.5% fatty acid free BSA) with MFG-E8 (5 μg/ml) and integrin αvβ3 (5 μg/ml) on ice for 30 min; bound proteins detected by αv and MFG-E8 antibodies. For orientation: In flow cytometry, cells or beads pass a laser one at a time.
Sequence of UniProt P21956 (P21956 23-463): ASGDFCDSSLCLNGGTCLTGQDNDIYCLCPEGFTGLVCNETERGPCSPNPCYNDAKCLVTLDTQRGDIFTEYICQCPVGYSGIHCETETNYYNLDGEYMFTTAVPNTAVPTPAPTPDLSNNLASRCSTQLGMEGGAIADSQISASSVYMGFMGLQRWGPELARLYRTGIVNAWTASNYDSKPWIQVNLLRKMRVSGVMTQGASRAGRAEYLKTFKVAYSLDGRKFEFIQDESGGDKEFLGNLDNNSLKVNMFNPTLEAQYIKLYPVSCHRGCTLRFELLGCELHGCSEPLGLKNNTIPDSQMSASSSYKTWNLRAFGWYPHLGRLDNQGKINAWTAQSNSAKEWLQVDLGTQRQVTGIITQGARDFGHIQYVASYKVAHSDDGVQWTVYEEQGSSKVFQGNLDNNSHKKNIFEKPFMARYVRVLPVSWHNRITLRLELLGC

For “Recombinant Human Integrin alpha V beta 3 Protein (from UniProt P06756 31-1048; P05106 27-718) (receptor)”, the percent of VLPs αvβ3/MFG-E8 positive came out at 80%.
